In paper PMC3326528:
Residue numbers refer to the chain shown, from its start. Numbers in names are those of the source.

B1: T80A (Streptantibioticus cattleyicolor; T80A) (protein)
chain: AANSTRRPIIAFMSDLGTTDDSVAQCKGLMYSICPDVTVVDVCHSMTPWDVEEGARYIVDLPRFFPEGTVFATTTYPAAGTTTRSVAVRIKQAAKGGARGQWAGSGAGFERAEGSYIYIAPNNGLLTTVLEEHGYLEAYEVTSPKVIPEQPEPTFYSREMVAIPSAHLAAGFPLSEVGRPLEDHEIVRFNRPAVEQDGEALVGVVSAIDHPFGNVWTNIHRTDLEKAGIGYGARLRLTLDGVLPFEAPLTPTFADAGEIGNIAIYLNSRGYLSIARNAASLAYPYHLKEGMSARVEAR
B2: T80S (Streptantibioticus cattleyicolor; T80S) (protein)
chain: B1 chain with A79S
B3: S158A (Streptantibioticus cattleyicolor; S158A) (protein)
chain: B1 chain with A79T, S157A
B4: S158G (Streptantibioticus cattleyicolor; S158G) (protein)
chain: B1 chain with A79T, S157G

The proteins below were run on C[S+](CC[C@H](N)C(=O)[O-])C[C@H]1O[C@@H](n2cnc3c(N)ncnc32)[C@H](O)[C@@H]1O (assay: Discontinuous HPLC assay of 5′-FDA formation with SAM varied at 200 mM fluoride). Details: pH 7.8; 25.0 °C.
Format: biochemical

Protein | Km | kcat
B1 | 3.0 ± 0.4 µM | 8.33e-05 ± 3.33e-06 s⁻¹
B2 | 4.7 ± 0.4 µM | 0.001 ± 3.33e-05 s⁻¹
B3 | 9.2 ± 1.2 µM | 0.00015 ± 1e-05 s⁻¹
B4 | 0.8 ± 0.5 µM | 1.17e-05 ± 5e-07 s⁻¹
